Source: patent US5508261

What was measured:
[1] = molecular target: rat luteal ovarian LH receptors (rat) (UniProt P16235); assay: inhibition of 125I-hCG binding to rat luteal ovarian LH receptors
[2] = molecular target: bovine testes FSH receptors (bovine) (UniProt P35376); assay: inhibition of 125I-hFSH binding to bovine testes FSH receptors

activity relative to hCG (LH RECEPTORS; ratio of concentrations for 50% inhibition) (relative to recombinant hCG) [1]: 0.53 | activity relative to hFSH (FSH RECEPTORS; ratio of concentrations for 50% inhibition) (relative to recombinant hFSH) [2]: 0.18
Substance: eCG (ligand)
